Consider 6 molecules from publication PMC9976900.

For series [1], the target named is T1, Unr CSD789 wild type (Drosophila, UniProt B7Z0E2 756-990).
T1 sequence: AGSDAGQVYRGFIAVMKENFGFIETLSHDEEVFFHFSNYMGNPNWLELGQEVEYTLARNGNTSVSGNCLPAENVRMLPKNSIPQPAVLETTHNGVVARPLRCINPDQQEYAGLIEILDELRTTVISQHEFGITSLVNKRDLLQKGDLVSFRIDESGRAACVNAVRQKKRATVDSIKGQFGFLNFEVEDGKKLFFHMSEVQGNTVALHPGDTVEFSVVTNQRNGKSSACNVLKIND
Nature of the series: ITC. (ITC needs no label: the signal is the heat of the interaction.)

The target in a further series is pAbp RRM3 (Drosophila, UniProt P21187 176-263). In words: NMR titration.
pAbp RRM3, sequence (P21187 176-263): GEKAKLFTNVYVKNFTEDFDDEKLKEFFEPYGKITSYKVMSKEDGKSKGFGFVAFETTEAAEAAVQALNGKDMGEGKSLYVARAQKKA
The target in a further series is T2, Unr CSD789 Q868A (Drosophila, UniProt B7Z0E2 756-990, Q898A).
T2 sequence: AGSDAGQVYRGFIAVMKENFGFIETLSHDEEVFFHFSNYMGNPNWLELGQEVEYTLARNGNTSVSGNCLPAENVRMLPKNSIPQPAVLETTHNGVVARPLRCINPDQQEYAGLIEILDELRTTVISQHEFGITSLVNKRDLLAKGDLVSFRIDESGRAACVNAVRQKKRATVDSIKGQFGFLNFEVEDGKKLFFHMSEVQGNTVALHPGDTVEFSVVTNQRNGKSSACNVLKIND
In words: fluorescence polarization.

In a further series the target is T3, Unr CSD789 P860A (Drosophila, UniProt B7Z0E2 756-990, P860A).
T3 sequence: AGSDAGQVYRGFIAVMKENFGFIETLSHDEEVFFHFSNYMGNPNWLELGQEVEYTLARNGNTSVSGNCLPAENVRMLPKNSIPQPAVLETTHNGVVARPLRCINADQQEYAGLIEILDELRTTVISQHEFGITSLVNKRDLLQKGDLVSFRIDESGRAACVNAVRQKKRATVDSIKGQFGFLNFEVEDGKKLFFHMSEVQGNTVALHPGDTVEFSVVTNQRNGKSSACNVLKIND
Nature of the series: fluorescence polarization. In general terms: Fluorescence polarisation rises when a labelled molecule tumbles more slowly, as on binding a larger partner.

The target of series [2] is T1, Unr CSD789 wild type. Nature of the series: fluorescence polarization.
The target in the next series is T4, Unr CSD789 N977A (Drosophila, UniProt B7Z0E2 756-990, N977A).
T4 sequence: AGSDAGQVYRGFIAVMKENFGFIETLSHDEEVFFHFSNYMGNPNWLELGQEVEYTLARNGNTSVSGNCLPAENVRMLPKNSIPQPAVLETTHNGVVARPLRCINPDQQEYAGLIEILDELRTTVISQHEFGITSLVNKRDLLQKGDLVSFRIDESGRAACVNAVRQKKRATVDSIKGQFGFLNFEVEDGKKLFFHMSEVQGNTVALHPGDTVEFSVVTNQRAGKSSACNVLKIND
Nature of the series: fluorescence polarization.

For a further series, the target named is T5, Unr CSD789 E786A (Drosophila, UniProt B7Z0E2 756-990, E786A).
T5 sequence: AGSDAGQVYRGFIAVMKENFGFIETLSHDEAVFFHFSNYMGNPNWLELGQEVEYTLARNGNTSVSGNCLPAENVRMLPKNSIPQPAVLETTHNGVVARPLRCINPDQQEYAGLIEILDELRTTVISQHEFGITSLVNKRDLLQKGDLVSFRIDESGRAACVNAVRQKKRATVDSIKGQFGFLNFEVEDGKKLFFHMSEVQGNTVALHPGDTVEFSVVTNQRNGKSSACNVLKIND
Nature of the series: fluorescence polarization.

Series [3] concerns the target T6, Unr CSD789 E786A/R856A/P860A (ERPmut) (Drosophila, UniProt B7Z0E2 756-990, E786A;R856A;P860A).
T6 sequence: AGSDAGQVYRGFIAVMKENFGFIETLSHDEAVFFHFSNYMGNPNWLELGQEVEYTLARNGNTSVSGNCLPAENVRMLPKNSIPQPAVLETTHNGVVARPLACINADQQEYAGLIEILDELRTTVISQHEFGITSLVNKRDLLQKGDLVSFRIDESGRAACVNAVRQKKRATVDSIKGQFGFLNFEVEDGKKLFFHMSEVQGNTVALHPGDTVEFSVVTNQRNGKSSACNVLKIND
In words: fluorescence polarization.

In another series the target is T7, Unr CSD789 K979A (Drosophila, UniProt B7Z0E2 756-990, K979A).
T7 sequence: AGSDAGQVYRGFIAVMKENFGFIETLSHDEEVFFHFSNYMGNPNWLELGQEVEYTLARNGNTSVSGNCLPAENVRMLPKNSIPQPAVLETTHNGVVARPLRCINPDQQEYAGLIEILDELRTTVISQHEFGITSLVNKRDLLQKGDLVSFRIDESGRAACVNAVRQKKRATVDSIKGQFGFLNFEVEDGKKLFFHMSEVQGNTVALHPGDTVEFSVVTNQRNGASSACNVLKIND
Nature of the series: fluorescence polarization.

Another series has as its target T8, Unr CSD789 R976A (Drosophila, UniProt B7Z0E2 756-990, R976A).
T8 sequence: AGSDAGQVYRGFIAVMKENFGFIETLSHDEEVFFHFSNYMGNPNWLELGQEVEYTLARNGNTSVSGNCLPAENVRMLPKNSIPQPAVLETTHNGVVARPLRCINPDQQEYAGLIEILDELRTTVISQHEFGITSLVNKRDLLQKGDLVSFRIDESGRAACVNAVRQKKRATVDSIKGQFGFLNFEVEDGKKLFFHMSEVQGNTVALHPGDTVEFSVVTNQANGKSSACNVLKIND
Nature of the series: fluorescence polarization.

Another series deals with T9, Unr CSD789 Q975A (Drosophila, UniProt B7Z0E2 756-990, Q975A).
T9 sequence: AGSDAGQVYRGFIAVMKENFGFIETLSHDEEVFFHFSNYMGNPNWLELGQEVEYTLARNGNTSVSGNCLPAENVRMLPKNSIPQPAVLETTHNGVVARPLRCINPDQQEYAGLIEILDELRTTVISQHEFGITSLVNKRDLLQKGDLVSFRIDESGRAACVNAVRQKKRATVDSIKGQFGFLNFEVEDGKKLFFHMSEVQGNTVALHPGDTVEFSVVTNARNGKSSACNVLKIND
In words: fluorescence polarization.

In another series the target is T10, Unr CSD789 R856A (Drosophila, UniProt B7Z0E2 756-990, R856A).
T10 sequence: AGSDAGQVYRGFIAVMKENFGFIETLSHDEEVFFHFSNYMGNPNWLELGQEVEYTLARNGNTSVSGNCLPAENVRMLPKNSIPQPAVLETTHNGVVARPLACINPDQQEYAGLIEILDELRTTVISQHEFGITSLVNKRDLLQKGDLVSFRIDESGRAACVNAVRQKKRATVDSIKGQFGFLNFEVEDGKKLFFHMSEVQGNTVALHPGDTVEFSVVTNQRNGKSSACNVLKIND
Nature of the series: fluorescence polarization.

For series [4], the target named is T1, Unr CSD789 wild type. Nature of the series: NMR titration.

Usually Kd stands for the concentration at which binding is half-saturated. Read a low Kd as a tighter complex.

For the molecule AAAAAAAA (ssRNA) [A8-mer], binding with Unr CSD789 wild type [1] was put at a Kd of 4.4 ± 2.7 µM. In the series with pAbp RRM3, the binding result is recorded as “binds”.
Take AAAAAAAAAAAAAAA (ssRNA) [A15-mer, 3' labelled]: the Kd with Unr CSD789 Q868A was 61 ± 12.1 µM; with Unr CSD789 P860A it was 67.2 ± 7.9 µM; with Unr CSD789 wild type [2], 21.1 ± 3.6 µM; with Unr CSD789 N977A it was 71.2 ± 12.5 µM; with Unr CSD789 E786A, 50.1 ± 6.4 µM; in [3], around 94.7 µM. In addition, the Kd came out at 160 ± 57.6 µM with Unr CSD789 K979A, 161 ± 51.2 µM in the series with Unr CSD789 R976A, 38.2 ± 8.7 µM with Unr CSD789 Q975A and 72.4 ± 11 µM with Unr CSD789 R856A.
The molecule AAAAA (ssRNA) [A5-mer] registered a Kd with Unr CSD789 wild type [4] of 127 ± 16.6 µM. For the same molecule, the binding result with pAbp RRM3 is reported as “binds”.
Turning to AAAAAAAAA (ssRNA) [A9-mer], in the series with Unr CSD789 wild type [1], the Kd came to 4.3 ± 1.3 µM.
In the case of AAAAAAAAAAAAAAA (ssRNA) [A15-mer], the Kd with Unr CSD789 wild type [1] was 4.8 ± 0.8 µM; with Unr CSD789 wild type [4] it was 8 ± 1.5 µM.
AAAAAAA (ssRNA) [A7-mer] had a Kd with Unr CSD789 wild type [1] of 17.7 ± 5.2 µM.
